Measured values from article PMC8654964, “Centrosome dysfunction associated with somatic expression of the synaptonemal complex protein TEX12” (Communications Biology, 2021).

B1: TEX12core (human TEX12 amino acids 49-123) (domain or fragment, UniProt Q9BXU0 49-123, looked up)
chain: KDEALEKDLNDVSKEINLMLSTYAKLLSERAAVDASYIDEIDELFKEANAIENFLIQKREFLRQRFTVIANTLHR
notes: Human TEX12, alpha-helical structural core, amino acids 49-123; Cloned into pMAT11 as a His6-MBP fusion with a TEV site; also called structural core (49-123); source: E. coli BL21(DE3), purified (Ni-NTA, amylose, TEV cleavage, anion exchange); not shown: His6, N-terminal, cleaved; MBP, N-terminal, cleaved
B2: TEX12 (human, full length, amino acids 1-123) (natural protein, UniProt Q9BXU0 1-123, looked up)
chain: MMANHLVKPDNRNCKRPRELESPVPDSPQLSSLGKSDSSFSEISGLFYKDEALEKDLNDVSKEINLMLSTYAKLLSERAAVDASYIDEIDELFKEANAIENFLIQKREFLRQRFTVIANTLHR
notes: Human TEX12, synaptonemal complex central element protein, amino acids 1-123 (full length); Cloned into pMAT11 as a His6-MBP fusion with a TEV site; also called recombinant human TEX12; source: E. coli BL21(DE3), purified (Ni-NTA, amylose, TEV cleavage, anion exchange); not shown: His6, N-terminal, cleaved; MBP, N-terminal, cleaved

Molecular target: the molecule itself
Assay: SEC-MALS; Superdex 200 Increase 10/300 GL, 20 mM Tris pH 8.0, 150 mM KCl, 2 mM DTT, 0.5 ml/min; TEX12 loaded at 12 mg/ml, TEX12core at 4 mg/ml; self-association (homodimer)

Protein | stoichiometry N
B1 | 2
B2 | 2
